Holding throughout (assay): cell-based or functional assay
The target in assay [1] is Notch 3 expressed on mouse T-cells (Tregs) (mouse) (UniProt Q61982).
Assay [2] deals with OX40L expressed on mouse GM-BMDCs (mouse) (UniProt P43488).
Assay [3] addresses Jagged-1 expressed on mouse GM-BMDCs (mouse) (UniProt Q9QXX0).
Chain of UniProt Q9QXX0 (Q9QXX0 34-1218): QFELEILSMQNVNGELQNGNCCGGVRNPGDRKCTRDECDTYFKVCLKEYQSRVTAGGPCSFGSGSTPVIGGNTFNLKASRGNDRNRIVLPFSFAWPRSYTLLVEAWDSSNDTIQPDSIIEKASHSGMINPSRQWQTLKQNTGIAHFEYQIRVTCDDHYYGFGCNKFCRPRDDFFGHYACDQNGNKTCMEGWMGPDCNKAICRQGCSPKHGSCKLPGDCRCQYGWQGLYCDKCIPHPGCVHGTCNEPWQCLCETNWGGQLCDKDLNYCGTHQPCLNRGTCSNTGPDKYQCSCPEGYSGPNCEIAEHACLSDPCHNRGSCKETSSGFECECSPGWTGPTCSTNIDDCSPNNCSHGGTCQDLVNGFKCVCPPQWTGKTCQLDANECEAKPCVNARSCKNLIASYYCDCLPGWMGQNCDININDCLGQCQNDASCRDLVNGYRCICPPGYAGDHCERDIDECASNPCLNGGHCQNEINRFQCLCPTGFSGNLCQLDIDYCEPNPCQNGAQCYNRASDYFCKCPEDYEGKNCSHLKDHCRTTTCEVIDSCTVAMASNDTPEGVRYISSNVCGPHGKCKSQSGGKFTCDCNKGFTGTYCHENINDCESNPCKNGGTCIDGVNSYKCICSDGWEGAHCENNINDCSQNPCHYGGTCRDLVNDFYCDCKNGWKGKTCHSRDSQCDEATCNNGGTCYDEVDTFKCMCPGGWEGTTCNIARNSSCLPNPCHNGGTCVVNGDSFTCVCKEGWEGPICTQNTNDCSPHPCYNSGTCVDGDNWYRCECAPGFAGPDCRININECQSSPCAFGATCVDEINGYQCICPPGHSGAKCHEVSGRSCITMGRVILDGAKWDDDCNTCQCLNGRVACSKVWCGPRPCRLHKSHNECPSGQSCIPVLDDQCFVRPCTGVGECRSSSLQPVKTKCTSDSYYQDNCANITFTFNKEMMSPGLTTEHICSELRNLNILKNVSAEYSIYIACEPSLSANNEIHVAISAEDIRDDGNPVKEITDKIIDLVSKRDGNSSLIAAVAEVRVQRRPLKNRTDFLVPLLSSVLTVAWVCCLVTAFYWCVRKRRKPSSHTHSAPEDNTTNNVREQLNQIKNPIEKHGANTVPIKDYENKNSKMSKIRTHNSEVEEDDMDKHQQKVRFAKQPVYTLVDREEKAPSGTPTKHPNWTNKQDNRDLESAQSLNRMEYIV

Chain of UniProt P43488 (P43488 whole entry): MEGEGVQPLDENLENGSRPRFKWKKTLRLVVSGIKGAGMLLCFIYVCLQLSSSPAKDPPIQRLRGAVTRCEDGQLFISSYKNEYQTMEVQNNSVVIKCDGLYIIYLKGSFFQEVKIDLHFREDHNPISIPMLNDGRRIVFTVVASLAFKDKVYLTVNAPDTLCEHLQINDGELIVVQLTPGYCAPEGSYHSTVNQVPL
Chain of UniProt Q61982 (Q61982 40-2318): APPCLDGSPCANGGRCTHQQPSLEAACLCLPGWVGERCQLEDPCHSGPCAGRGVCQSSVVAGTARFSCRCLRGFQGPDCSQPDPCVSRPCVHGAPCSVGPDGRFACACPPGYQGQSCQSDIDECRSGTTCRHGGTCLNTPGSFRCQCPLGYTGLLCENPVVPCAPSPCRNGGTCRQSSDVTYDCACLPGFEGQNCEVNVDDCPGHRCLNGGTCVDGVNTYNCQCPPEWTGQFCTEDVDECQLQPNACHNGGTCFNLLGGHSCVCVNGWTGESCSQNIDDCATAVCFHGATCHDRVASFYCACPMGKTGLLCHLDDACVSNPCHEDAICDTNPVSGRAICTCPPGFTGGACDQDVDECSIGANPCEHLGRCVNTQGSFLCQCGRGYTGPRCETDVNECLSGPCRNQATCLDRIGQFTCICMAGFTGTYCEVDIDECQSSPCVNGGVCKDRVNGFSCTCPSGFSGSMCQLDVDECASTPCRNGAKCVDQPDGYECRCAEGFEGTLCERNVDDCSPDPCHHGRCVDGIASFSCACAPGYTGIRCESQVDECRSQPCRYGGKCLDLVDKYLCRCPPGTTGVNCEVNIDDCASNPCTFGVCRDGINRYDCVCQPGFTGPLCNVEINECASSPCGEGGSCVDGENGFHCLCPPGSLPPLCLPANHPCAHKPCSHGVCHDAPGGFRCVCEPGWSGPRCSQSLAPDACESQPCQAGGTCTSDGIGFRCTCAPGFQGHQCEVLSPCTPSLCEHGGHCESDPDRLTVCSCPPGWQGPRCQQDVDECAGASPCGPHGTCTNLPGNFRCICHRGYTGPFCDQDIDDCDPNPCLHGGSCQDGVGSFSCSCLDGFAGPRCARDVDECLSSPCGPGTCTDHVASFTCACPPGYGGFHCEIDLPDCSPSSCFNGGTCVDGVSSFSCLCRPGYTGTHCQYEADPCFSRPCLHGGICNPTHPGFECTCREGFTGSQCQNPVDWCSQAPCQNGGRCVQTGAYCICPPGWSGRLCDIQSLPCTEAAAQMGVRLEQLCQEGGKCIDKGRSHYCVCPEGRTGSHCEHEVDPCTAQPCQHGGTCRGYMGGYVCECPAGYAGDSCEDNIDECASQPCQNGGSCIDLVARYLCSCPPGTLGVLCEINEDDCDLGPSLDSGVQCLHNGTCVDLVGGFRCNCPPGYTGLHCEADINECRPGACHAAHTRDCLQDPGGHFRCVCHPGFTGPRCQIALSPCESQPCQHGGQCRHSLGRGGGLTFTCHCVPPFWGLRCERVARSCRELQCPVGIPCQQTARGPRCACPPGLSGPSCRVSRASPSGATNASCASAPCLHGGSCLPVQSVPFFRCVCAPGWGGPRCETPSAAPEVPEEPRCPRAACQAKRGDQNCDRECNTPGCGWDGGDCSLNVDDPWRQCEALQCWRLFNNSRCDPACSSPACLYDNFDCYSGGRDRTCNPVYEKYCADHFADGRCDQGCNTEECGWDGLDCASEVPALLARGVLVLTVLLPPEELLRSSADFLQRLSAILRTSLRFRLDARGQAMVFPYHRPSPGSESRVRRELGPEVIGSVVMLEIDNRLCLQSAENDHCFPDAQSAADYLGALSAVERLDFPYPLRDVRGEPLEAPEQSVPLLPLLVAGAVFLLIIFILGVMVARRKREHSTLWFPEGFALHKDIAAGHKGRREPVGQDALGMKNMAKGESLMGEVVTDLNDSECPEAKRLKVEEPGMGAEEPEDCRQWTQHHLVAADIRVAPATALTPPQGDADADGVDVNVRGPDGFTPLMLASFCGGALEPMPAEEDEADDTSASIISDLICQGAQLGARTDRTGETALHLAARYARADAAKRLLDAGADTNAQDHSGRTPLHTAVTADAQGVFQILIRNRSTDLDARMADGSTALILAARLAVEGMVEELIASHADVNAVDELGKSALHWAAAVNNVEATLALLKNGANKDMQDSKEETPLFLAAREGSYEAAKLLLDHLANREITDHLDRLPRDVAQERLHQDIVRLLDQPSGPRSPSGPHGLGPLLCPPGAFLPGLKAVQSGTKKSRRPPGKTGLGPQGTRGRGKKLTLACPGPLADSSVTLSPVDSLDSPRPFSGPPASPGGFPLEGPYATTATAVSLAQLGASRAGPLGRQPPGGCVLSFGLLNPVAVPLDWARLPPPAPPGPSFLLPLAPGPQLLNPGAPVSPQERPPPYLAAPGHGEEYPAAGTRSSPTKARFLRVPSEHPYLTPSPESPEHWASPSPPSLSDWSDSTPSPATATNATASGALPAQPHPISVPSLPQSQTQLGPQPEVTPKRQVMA

As for “Jagged-1 expressed on mouse GM-BMDCs (from UniProt Q9QXX0 34-1218) (ligand)”, the Proliferating Foxp3+ T cells positive for Notch 3 NICD in GM-BMDC/T-cell co-cultures (FACS) in assay [1] amounted to 97%.

With “Blocking antibody to OX40L (AF1236, R&D systems)”, the Treg proliferation (%) in GM-BMDC/CD4+ T-cell co-culture with anti-OX40L-Hi (13.0% without antibody) in assay [2] was determined as 3.7%.

As to “Blocking antibody to Jagged-1 (AF599, R&D systems)”, the Treg proliferation (%) in GM-BMDC/CD4+ T-cell co-culture with anti-Jagged-1-Hi (13.0% without antibody) in assay [3] came out at 5.3%.

The values are drawn from patent publication US20180119100A1.
